Measurements as given in IntAct's records for PubMed 10449590.

B1: 14-3-3-like protein GF14 phi (Arabidopsis thaliana (Mouse-ear cress)), P46077 (parent)
chain: MAAPPASSSAREEFVYLAKLAEQAERYEEMVEFMEKVAEAVDKDELTVEERNLLSVAYKNVIGARRASWRIISSIEQKEESRGNDDHVTTIRDYRSKIESELSKICDGILKLLDTRLVPASANGDSKVFYLKMKGDYHRYLAEFKTGQERKDAAEHTLTAYKAAQDIANAELAPTHPIRLGLALNFSVFYYEILNSPDRACNLAKQAFDEAIAELDTLGEESYKDSTLIMQLLRDNLTLWTSDMQDESPEEIKEAAAPKPAEEQKEI
partner: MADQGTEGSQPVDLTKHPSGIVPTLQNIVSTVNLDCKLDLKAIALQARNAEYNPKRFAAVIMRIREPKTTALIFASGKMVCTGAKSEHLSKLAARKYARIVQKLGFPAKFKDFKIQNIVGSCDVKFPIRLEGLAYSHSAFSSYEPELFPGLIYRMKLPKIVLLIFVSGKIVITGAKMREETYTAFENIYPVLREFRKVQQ
B2: Transcription initiation factor IIB (Homo sapiens), Q00403 (parent)
chain: MASTSRLDALPRVTCPNHPDAILVEDYRAGDMICPECGLVVGDRVIDVGSEWRTFSNDKATKDPSRVGDSQNPLLSDGDLSTMIGKGTGAASFDEFGNSKYQNRRTMSSSDRAMMNAFKEITTMADRINLPRNIVDRTNNLFKQVYEQKSLKGRANDAIASACLYIACRQEGVPRTFKEICAVSRISKKEIGRCFKLILKALETSVDLITTGDFMSRFCSNLCLPKQVQMAATHIARKAVELDLVPGRSPISVAAAAIYMASQASAEKRTQKEIGDIAGVADVTIRQSYRLIYPRAPDLFPTDFKFDTPVDKLPQL
partner: B1 chain
B3: 14-3-3-like protein GF14 phi (Arabidopsis thaliana (Mouse-ear cress)), P46077 (parent)
chain: B1 chain
partner: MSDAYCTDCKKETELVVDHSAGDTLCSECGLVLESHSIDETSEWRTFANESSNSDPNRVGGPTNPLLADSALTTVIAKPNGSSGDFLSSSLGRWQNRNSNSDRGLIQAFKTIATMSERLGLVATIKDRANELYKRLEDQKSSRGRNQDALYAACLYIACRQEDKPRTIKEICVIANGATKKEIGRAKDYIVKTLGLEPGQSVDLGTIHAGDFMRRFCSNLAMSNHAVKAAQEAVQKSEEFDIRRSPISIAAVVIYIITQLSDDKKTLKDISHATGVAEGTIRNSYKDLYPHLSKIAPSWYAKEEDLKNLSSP
B4: 14-3-3 protein epsilon (Homo sapiens), P62258 (parent)
chain: MDDREDLVYQAKLAEQAERYDEMVESMKKVAGMDVELTVEERNLLSVAYKNVIGARRASWRIISSIEQKEENKGGEDKLKMIREYRQMVETELKLICCDILDVLDKHLIPAANTGESKVFYYKMKGDYHRYLAEFATGNDRKEAAENSLVAYKAASDIAMTELPPTHPIRLGLALNFSVFYYEILNSPDRACRLAKAAFDDAIAELDTLSEESYKDSTLIMQLLRDNLTLWTSDMQGDGEEQNKEALQDVEDENQ

Variants of: B1
Conditions: with tbp2_arath TBP2, P28148

| Variant | effect of a mutation on the interaction |
| --- | --- |
| MAAPPASSSAREEFVYLAKLAEQAERYEEMVEFMEKVAEAVDKDELTVEERNLLSVAYKNVIGARRASWRIISSIEQKEESRGNDDHVTTIRDYRSKIESELSKICDGILKLLDTRLVPASANGDSKVFYLKMKGDYHRYLAEFKTGQERKDAAEHTLTAYKAAQDIANAELAPTHPIRLGLAAAFSVFYYEILNSPDRACNLAKQAFDEAIAELDTLGEESYKDSTLIMQLLRDNLTLWTSDMQDESPEEIKEAAAPKPAEEQKEI [L184A;N185A] | decreasing interaction |
| MAAPPASSSAREEFVYLAKLAEQAERYEEMVEFMEKVAEAVDKDELTVEERNLLSVAYKNVIGARRASWRIISSIEQKEESRGNDDHVTTIRDYRSKIESELSKICDGILKLLDTRLVPASANGDSKVFYLKMKGDYHRYLAEFKTGQERKDAAEHTLTAYKAAQDIANAELAPTHPIRLGLALNFSAAYYEILNSPDRACNLAKQAFDEAIAELDTLGEESYKDSTLIMQLLRDNLTLWTSDMQDESPEEIKEAAAPKPAEEQKEI [V188A;F189A] | decreasing interaction |
| MAAPPASSSAREEFVYLAKLAEQAERYEEMVEFMEKVAEAVDKDELTVEERNLLSVAYKNVIGARRASWRIISSIEQKEESRGNDDHVTTIRDYRSKIESELSKICDGILKLLDTRLVPASANGDSKVFYLKMKGDYHRYLAEFKTGQERKDAAEHTLTAYKAAQDIANAELAPTHPIRLGLALNAAVFYYEILNSPDRACNLAKQAFDEAIAELDTLGEESYKDSTLIMQLLRDNLTLWTSDMQDESPEEIKEAAAPKPAEEQKEI [F186A;S187A] | disrupting interaction |

Variants of: B2
Conditions: with 14334_arath GRF4, P46077

| Variant | effect of a mutation on the interaction |
| --- | --- |
| MASTSRLDALPRVTCPNHPDAILVEDYRAGDMICPECGLVVGDRVIDVGSEWRTFSNDKATKDPSRVGDSQNPLLSDGDLSTMIGKGTGAASFDEFGNSKYQNRRTMSSSDRAMMNAFKEITTMADRINLPRNIVDRTNNLFKQVYEQKSLKGRANDAIASACLYIACRQEGVPRTFKEICAVSEISKKEIGECFKLILKALETSVDLITTGDFMSRFCSNLCLPKQVQMAATHIARKAVELDLVPGRSPISVAAAAIYMASQASAEKRTQKEIGDIAGVADVTIRQSYRLIYPRAPDLFPTDFKFDTPVDKLPQL [R185E;R193E] | decreasing interaction |

Variants of: B3
Conditions: with tf2b1_arath TFIIB1, P48512

| Variant | effect of a mutation on the interaction |
| --- | --- |
| MAAPPASSSAREEFVYLAKLAEQAERYEEMVEFMEKVAEAVDKDELTVEERNLLSVAYKNVIGARRASWRIISSIEQKEESRGNDDHVTTIRDYRSKIESELSKICDGILKLLDTRLVPASANGDSKVFYLKMKGDYHRYLAEFKTGQERKDAAEHTLTAYKAAQDIANAELAPTHPIRLGLALNAAVFYYEILNSPDRACNLAKQAFDEAIAELDTLGEESYKDSTLIMQLLRDNLTLWTSDMQDESPEEIKEAAAPKPAEEQKEI [F186A;S187A] | disrupting interaction |
| MAAPPASSSAREEFVYLAKLAEQAERYEEMVEFMEKVAEAVDKDELTVEERNLLSVAYKNVIGARRASWRIISSIEQKEESRGNDDHVTTIRDYRSKIESELSKICDGILKLLDTRLVPASANGDSKVFYLKMKGDYHRYLAEFKTGQERKDAAEHTLTAYKAAQDIANAELAPTHPIRLGLAAAFSVFYYEILNSPDRACNLAKQAFDEAIAELDTLGEESYKDSTLIMQLLRDNLTLWTSDMQDESPEEIKEAAAPKPAEEQKEI [L184A;N185A] | decreasing interaction |
| MAAPPASSSAREEFVYLAKLAEQAERYEEMVEFMEKVAEAVDKDELTVEERNLLSVAYKNVIGARRASWRIISSIEQKEESRGNDDHVTTIRDYRSKIESELSKICDGILKLLDTRLVPASANGDSKVFYLKMKGDYHRYLAEFKTGQERKDAAEHTLTAYKAAQDIANAELAPTHPIRLGLALNFSAAYYEILNSPDRACNLAKQAFDEAIAELDTLGEESYKDSTLIMQLLRDNLTLWTSDMQDESPEEIKEAAAPKPAEEQKEI [V188A;F189A] | decreasing interaction |

Variants of: B4
Conditions: with tbp_human TBP

| Variant | effect of a mutation on the interaction |
| --- | --- |
| MDDREDLVYQAKLAEQAERYDEMVESMKKVAGMDVELTVEERNLLSVAYKNVIGARRASWRIISSIEQKEENKGGEDKLKMIREYRQMVETELKLICCDILDVLDKHLIPAANTGESKVFYYKMKGDYHRYLAEFATGNDRKEAAENSLVAYKAASDIAMTELPPTHPIRLGLAAAFSVFYYEILNSPDRACRLAKAAFDDAIAELDTLSEESYKDSTLIMQLLRDNLTLWTSDMQGDGEEQNKEALQDVEDENQ [L175A;N176A] | decreasing interaction |
| MDDREDLVYQAKLAEQAERYDEMVESMKKVAGMDVELTVEERNLLSVAYKNVIGARRASWRIISSIEQKEENKGGEDKLKMIREYRQMVETELKLICCDILDVLDKHLIPAANTGESKVFYYKMKGDYHRYLAEFATGNDRKEAAENSLVAYKAASDIAMTELPPTHPIRLGLALNFSAAYYEILNSPDRACRLAKAAFDDAIAELDTLSEESYKDSTLIMQLLRDNLTLWTSDMQGDGEEQNKEALQDVEDENQ [V179A;F180A] | decreasing interaction |
| MDDREDLVYQAKLAEQAERYDEMVESMKKVAGMDVELTVEERNLLSVAYKNVIGARRASWRIISSIEQKEENKGGEDKLKMIREYRQMVETELKLICCDILDVLDKHLIPAANTGESKVFYYKMKGDYHRYLAEFATGNDRKEAAENSLVAYKAASDIAMTELPPTHPIRLGLALNAAVFYYEILNSPDRACRLAKAAFDDAIAELDTLSEESYKDSTLIMQLLRDNLTLWTSDMQGDGEEQNKEALQDVEDENQ [F177A;S178A] | disrupting interaction |
